Experimental data published in FireProtDB (doi:10.1016/j.jmb.2010.11.028).

B1: Alpha-tocopherol transfer protein, P49638 (parent)
chain: MAEARSQPSAGPQLNALPDHSPLLQPGLAALRRRAREAGVPLAPLPLTDSFLLRFLRARDFDLDLAWRLLKNYYKWRAECPEISADLHPRSIIGLLKAGYHGVLRSRDPTGSKVLIYRIAHWDPKVFTAYDVFRVSLITSELIVQEVETQRNGIKAIFDLEGWQFSHAFQITPSVAKKIAAVLTDSFPLKVRGIHLINEPVIFHAVFSMIKPFLTEKIKERIHMHGNNYKQSLLQHFPDILPLEYGGEEFSMEDICQEWTNFIMKSEDYLSSISESIQ

Variants of: B1
Settings: Homo sapiens; pH 7.4; Thermal; Fluorescence; Tris 50mM; structure 1R5L; whole UniProt chain shown

Variant | Tm [°C]
MAEARSQPSAGPQLNALPDHSPLLQPGLAALRRRAREAGVPLAPLPLTDSFLLRFLRARDFDLDLAWRLLKNYYKWRAECPEISADLHPRSIIGLLKAGYHGVLRSRDPTGSKVLIYRIAHWDPKVFTAYDVFRVSLITSELIVQEVETQRNGIKAIFDLEGWQASHAFQITPSVAKKIAAVLTDSFPLKVRGIHLINEPVIFHAVFSMIKPFLTEKIKERIHMHGNNYKQSLLQHFPDILPLEYGGEEFSMEDICQEWTNFIMKSEDYLSSISESIQ [F165A] | 82.4
MAEARSQPSAGPQLNALPDHSPLLQPGLAALRRRAREAGVPLAPLPLTDSFLLRFLRARDFDLDLAWRLLKNYYKWRAECPEISADLHPRSIIGLLKAGYHGVLRSRDPTGSKVLIYRIAHWDPKVFTAYDVFRVSLITSELIVQEVETQRNGIKAIFDLEGWQDSHAFQITPSVAKKIAAVLTDSFPLKVRGIHLINEPVIFHAVFSMIKPFLTEKIKERIHMHGNNYKQSLLQHFPDILPLEYGGEEFSMEDICQEWTNFIMKSEDYLSSISESIQ [F165D] | 82.4
MAEARSQPSAGPQLNALPDHSPLLQPGLAALRRRAREAGVPLAPLPLTDSFLLRFLRARDFDLDLAWRLLKNYYKWRAECPEISADLHPRSIIGLLKAGYHGVLRSRDPTGSKVLIYRIAHWDPKVFTAYDVFRVSLITSELIVQEVETQRNGIKAIFDLEGWQFSHAAQITPSVAKKIAAVLTDSFPLKVRGIHLINEPVIFHAVFSMIKPFLTEKIKERIHMHGNNYKQSLLQHFPDILPLEYGGEEFSMEDICQEWTNFIMKSEDYLSSISESIQ [F169A] | 75.3
MAEARSQPSAGPQLNALPDHSPLLQPGLAALRRRAREAGVPLAPLPLTDSFLLRFLRARDFDLDLAWRLLKNYYKWRAECPEISADLHPRSIIGLLKAGYHGVLRSRDPTGSKVLIYRIAHWDPKVFTAYDVFRVSLITSELIVQEVETQRNGIKAIFDLEGWQFSHAFQITPSVAKKIAAVLTDSFPLKVRGIHLINEPVAFHAVFSMIKPFLTEKIKERIHMHGNNYKQSLLQHFPDILPLEYGGEEFSMEDICQEWTNFIMKSEDYLSSISESIQ [I202A] | 74.9
MAEARSQPSAGPQLNALPDHSPLLQPGLAALRRRAREAGVPLAPLPLTDSFLLRFLRARDFDLDLAWRLLKNYYKWRAECPEISADLHPRSIIGLLKAGYHGVLRSRDPTGSKVLIYRIAHWDPKVFTAYDVFRVSLITSELIVQEVETQRNGIKAIFDLEGWQFSHAFQITPSVAKKIAAVLTDSFPLKVRGIHLINEPVDFHAVFSMIKPFLTEKIKERIHMHGNNYKQSLLQHFPDILPLEYGGEEFSMEDICQEWTNFIMKSEDYLSSISESIQ [I202D] | 73.6
MAEARSQPSAGPQLNALPDHSPLLQPGLAALRRRAREAGVPLAPLPLTDSFLLRFLRARDFDLDLAWRLLKNYYKWRAECPEISADLHPRSIIGLLKAGYHGVLRSRDPTGSKVLIYRIAHWDPKVFTAYDVFRVSLITSELIVQEVETQRNGIKAIFDLEGWQFSHAFQITPSVAKKIAAVLTDSFPLKVRGIHLINEPVIFHAAFSMIKPFLTEKIKERIHMHGNNYKQSLLQHFPDILPLEYGGEEFSMEDICQEWTNFIMKSEDYLSSISESIQ [V206A] | 78.2
MAEARSQPSAGPQLNALPDHSPLLQPGLAALRRRAREAGVPLAPLPLTDSFLLRFLRARDFDLDLAWRLLKNYYKWRAECPEISADLHPRSIIGLLKAGYHGVLRSRDPTGSKVLIYRIAHWDPKVFTAYDVFRVSLITSELIVQEVETQRNGIKAIFDLEGWQFSHAFQITPSVAKKIAAVLTDSFPLKVRGIHLINEPVIFHADFSMIKPFLTEKIKERIHMHGNNYKQSLLQHFPDILPLEYGGEEFSMEDICQEWTNFIMKSEDYLSSISESIQ [V206D] | 76
MAEARSQPSAGPQLNALPDHSPLLQPGLAALRRRAREAGVPLAPLPLTDSFLLRFLRARDFDLDLAWRLLKNYYKWRAECPEISADLHPRSIIGLLKAGYHGVLRSRDPTGSKVLIYRIAHWDPKVFTAYDVFRVSLITSELIVQEVETQRNGIKAIFDLEGWQFSHAFQITPSVAKKIAAVLTDSFPLKVRGIHLINEPVIFHAVFSAIKPFLTEKIKERIHMHGNNYKQSLLQHFPDILPLEYGGEEFSMEDICQEWTNFIMKSEDYLSSISESIQ [M209A] | 82.8
MAEARSQPSAGPQLNALPDHSPLLQPGLAALRRRAREAGVPLAPLPLTDSFLLRFLRARDFDLDLAWRLLKNYYKWRAECPEISADLHPRSIIGLLKAGYHGVLRSRDPTGSKVLIYRIAHWDPKVFTAYDVFRVSLITSELIVQEVETQRNGIKAIFDLEGWQFSHAFQITPSVAKKIAAVLTDSFPLKVRGIHLINEPVIFHAVFSDIKPFLTEKIKERIHMHGNNYKQSLLQHFPDILPLEYGGEEFSMEDICQEWTNFIMKSEDYLSSISESIQ [M209D] | 79.5
MAEARSQPSAGPQLNALPDHSPLLQPGLAALRRRAREAGVPLAPLPLTDSFLLRFLRARDFDLDLAWRLLKNYYKWRAECPEISADLHPRSIIGLLKAGYHGVLRSRDPTGSKVLIYRIAHWDPKVFTAYDVFRVSLITSELIVQEVETQRNGIKAIFDLEGWQFSHAFQITPSVAKKIAAVLTDSFPLKVRGIHLINEPVIFHAVFSMIKPFLTEKIKERIHMHGNNYKQSLLQHFPDILPLEYGGEEFSMEDICQEWTNFIDKSEDYLSSISESIQ [M264D] | 68.8
